Our source for the amyloid nucleation score values is the supplement of paper PMC12042874.

± gives the uncertainty stated by the source.

A short description of the data set: amyloid nucleation score (Sup35N fusion, yeast selection) (log enrichment); library NNK2; higher = more nucleation; inactive = no reads after selection. In outline: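 Peptides of 20 random codons fused to Sup35N were expressed in psi-negative yeast, induced 24 hours with 100 μM copper sulfate, then grown 7 days at 30°C on medium lacking adenine and uracil. Input and output plasmid inserts were Illumina-sequenced. Nucleation score is the DiMSum log enrichment of output over input reads, centred on the mode score of non-aggregating sequences, excluding sequences with under 100 input reads. Random libraries had three technical output replicates.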
As for WRLVHCIHTIGYCMPVRLRG, the amyloid nucleation score is 3.25 ± 0.088. For ADWMFRFMKERRQMVWNTRI the value was 0.044 ± 1.1; for FRNENC, “inactive”; for VVGFF, “inactive”. For IVSETKITIVC the value was -0.275 ± 0.48.

In the case of LGLTYGHHWY, the amyloid nucleation score was 3.12 ± 0.071. In turn, WRYRHELEACWRHHSNSWYG registered an amyloid nucleation score of 3.96 ± 0.052.

Consider WVVRPPDTLVLDETRVGSGM, for which the amyloid nucleation score was 0.699 ± 0.34. For LCSFAMKLVCNRVMAFDIES the value was 1.68 ± 0.19; for TFLWLT, 2.33 ± 0.09. For KFIEHWYVFGYIFLRFYKFQ the value was -0.623 ± 1; for SMATTE, 8.377 ± 0.063. For FFDNPMHKTYSGSAARARLS the value was -0.375 ± 0.24; for NGGAVFCVHACYGFRGRYER, 5.05 ± 0.045. VINLGGSE showed an amyloid nucleation score of 0.406 ± 0.38.

As for VEFNNAFNNCSLLFSDPRSS, the amyloid nucleation score is 3.34 ± 0.12. On to FAFVYSNHFGQMCYRNVCLS, for which the amyloid nucleation score result is “inactive”. For EDWNPSTMFVRFWYNSACWY the value was 0.204 ± 0.6; for QFDWDRVYMFSTLPFCIWWV, -0.783 ± 0.35; for EKFYLDLG, -0.006 ± 0.54. As for ICSAPGYL, the amyloid nucleation score result was “inactive”. To DCPLFQRLYRQS belongs -0.211 ± 0.22; to VSSAHYV, -0.657 ± 0.76. In turn, SCSVTSAFRWTRCGLLRGIW registered an amyloid nucleation score of -0.048 ± 0.3. For IQDLRFNITVTMPLESVSFM the value was 7.046 ± 0.058; for MFSESE, -0.275 ± 0.35; for YCFEADVARMIQVFLVFCAS, 0.259 ± 0.25.

Take GLYGMGIQMGPRISVSYPAA: the amyloid nucleation score was 0.536 ± 0.65.

As for QLGRVSHRVTDRIFWKAYPA, the amyloid nucleation score is 0.353 ± 0.35. In the case of WVQHYCSEFLL, the amyloid nucleation score was -0.313 ± 0.63. Turning to FCLALWWHYKFVLWFRNN, the amyloid nucleation score was -0.836 ± 0.37.

TCEYVVN gave an amyloid nucleation score of -0.659 ± 0.54.

As for RWSYLYSKEVH, the amyloid nucleation score is -1.28 ± 0.64.

In turn, ASRNLMYVHNFSSAGLKVLP returned an amyloid nucleation score of 0.178 ± 0.65. To RTLHSLWHNAT belongs 0.906 ± 0.35.

KQPLYCHDWFHLCGSDSTSF yielded an amyloid nucleation score of 2.75 ± 0.16. For LGPMTLATTLFNCKDRHVSP the value was 0.438 ± 0.29; for CFMLVFSRTCVSMYTIVNPS, 4.59 ± 0.11; for ENLYGFWYLTRCRMF, -0.096 ± 0.39. To IIVSATSEGSLRRIRMKMGW belongs 4.27 ± 0.11; to WSVDYDGCLCS, -0.094 ± 0.45. To FSSSYP belongs “inactive”. SVSLNCSPLFFYFRRYKVSR gave an amyloid nucleation score of 6.052 ± 0.038. To CQRTLQTGAYRDGLCIYGLS belongs 1.38 ± 0.41; to MYLCTGFASSFIKSHHITWR, -0.098 ± 0.43. To GLSNR belongs 0.458 ± 0.28; to AILNAVGCNWGTRCDGLSVQ, -0.213 ± 0.48; to WSKLYTFIFLASNKLLTWPC, “inactive”.

Consider FLVYWTMLVVYGYCVFGWIN, for which the amyloid nucleation score is -1.3 ± 0.78.

Turning to VRYGDRSGGLYLKRYFMLSF, the amyloid nucleation score entry is “inactive”. For TFYSLGLNISMFSLPGLAGY the value was 0.683 ± 0.35; for YSLRLDVYYRGWADYPGLWT, 1.73 ± 0.18. For IPYSSPS the value was “inactive”. For SHFGLDADWVEVPYYRFFRY the value was -0.8 ± 1; for SIFSIFWYV, -0.744 ± 0.5; for ASSALHRVMVLAVTFFRHSS, 0.839 ± 0.41. YFRCTHYTKTGTLVGDISVC registered an amyloid nucleation score of -0.657 ± 0.38. The substance TVLLSLSYADCSMLWLVRTL yielded an amyloid nucleation score of -0.304 ± 1.1. For SIKPVLVSDFEKAV the value was 0.661 ± 0.49; for RCPRSKLVIMDRASVLEGGR, 0.559 ± 0.32.

The substance LKIYLCIPHRRL gave an amyloid nucleation score of 0.082 ± 1.1.

For EKLWIMLTLICNIVRSPSYK, the amyloid nucleation score was -0.515 ± 1.1. In turn, NCAVFTSGR yielded an amyloid nucleation score of -0.478 ± 0.63. Turning to NKANLLYSPLLCLMAVHRMY, the amyloid nucleation score entry is “inactive”.

For the substance SNLSLMFLLRVSIGDKKEEE, the amyloid nucleation score was found to be 7.555 ± 0.034. To PNLIGLLVGLRVNSWSVAIT belongs 0.632 ± 0.21; to KHFRREW, 1.35 ± 0.41. IYFPP had an amyloid nucleation score of -0.689 ± 0.4. For RMCLSVVNWSSRSHRSFHQP the value was 3.81 ± 0.051. To GFSLNISKCVFLRFIWVFHF belongs -0.447 ± 1.1; to FCGYSAVVSRAGGCTNLSDE, “inactive”; to YECGCHLFD, -0.225 ± 0.74. For TVTRLSYGMFHQRNRVC the value was -0.267 ± 0.45; for SGFTVEESWTLLCRIVSREG, 1.22 ± 0.34. The substance TCLMVVE returned an amyloid nucleation score of 0.539 ± 0.66.

In turn, YTGIESE displayed an amyloid nucleation score of 0.768 ± 0.21. To SLSGHDLNWRFI belongs 0.32 ± 0.74. To MRPAPIINN belongs 1.14 ± 0.44.

As to GIQGLSLYRLLSPALWSPSG, the amyloid nucleation score was 0.168 ± 0.49.

Take VDVNVHIAGIWLWFYLWRYV: the amyloid nucleation score was -0.768 ± 1.1. LWFLS had an amyloid nucleation score of 0.393 ± 0.33. With YQLRCKCSTF, the amyloid nucleation score was -0.757 ± 0.41. To LNKQRSCFNVMGGWRKIYPS belongs 0.783 ± 0.13; to LSTANSNSRAVFIIKMRGLL, “inactive”. For VDWRNFIGLLNLTDCSDRYH the value was -0.744 ± 0.34; for TNLRAPEHHSHYCSRLRLD, -0.267 ± 0.35. For LHHYAFFSHM the value was “inactive”; for GVVEYRNFADSIVYGSRKFK, -0.685 ± 0.76. The substance GTWKVGQSYVVRVRLFFLLW displayed an amyloid nucleation score of -0.369 ± 0.36. Turning to DFESGWFSVDFVN, the amyloid nucleation score is -0.853 ± 0.55. For FIKMAITDRCGMAYS the value was -0.752 ± 0.53. To SLMDLT belongs 0.02 ± 0.54. Substance PNQISNA displayed an amyloid nucleation score of -0.47 ± 1.1. Consider FIWTYSYRDVWVLRVAVWLQ, for which the amyloid nucleation score came out at 0.283 ± 0.23. For ALYETTVPLLVWLGA the value was 0.463 ± 0.24; for YFVPKLYRVSFKLYKWCFKW, 0.277 ± 0.64. To REVLWCLPDQGELPGGVTFG belongs 2.44 ± 0.08; to PIIFSLSTFSCNVYEIRSNG, 3.57 ± 0.093; to TSFSG, 0.56 ± 0.38.

In turn, FCLVEVWRIYVVCWPWSVGR registered an amyloid nucleation score of 0.743 ± 0.47. To RPMLVVSGGTSVLWDWAASD belongs 0.422 ± 0.64; to LVHSLDFL, -0.389 ± 0.61. YLTRAIIVFIS displayed an amyloid nucleation score of 3.66 ± 0.062. To FYYSLTMRLD belongs -0.322 ± 0.42; to FHSLRQLFMNTGVL, “inactive”. Substance QYVPVLGPACMQLMRYNCAD came in with an amyloid nucleation score of -0.177 ± 0.4. To AALHNYAVSFCFMSPMKQKT belongs -0.542 ± 0.76; to HGGRKG, 1.42 ± 0.31; to WTWTYARDVHTTLN, 1.13 ± 0.41. To YYCTKASTLRSGGFRFMPMT belongs 4.9 ± 0.051; to NCYRLWWPVLSTWWRFFI, 0.047 ± 0.35. To VEAWGP belongs -0.948 ± 0.45; to ELFTLGLEGALEVNELKLKY, 0.782 ± 0.18. For the substance SANSRVGGLGNL, the amyloid nucleation score was determined as 0.717 ± 0.39. To RFSYFFHVLMRGRNYVQATG belongs “inactive”.

The substance RDRRASYLVVASPTAGLHMV showed an amyloid nucleation score of 3.34 ± 0.078. To RLLLLPTSLLYSKSWCYSLL belongs -0.622 ± 0.27.

For IVFYMSS, the amyloid nucleation score turned out to be 1.53 ± 0.095. For WFDIKL the value was -0.367 ± 0.48; for IVSAMQLEHESQCKFGMNWV, 0.082 ± 0.42; for ASIVNYHFD, “inactive”. For IDSWCVTHATKIGSYWML the value was 0.12 ± 0.34. To WGLHYSRYHLHV belongs -0.494 ± 0.27. Regarding RMSVRLKVVHLDAIIVLVLG, the amyloid nucleation score stood at 0.877 ± 0.8.

For NAHMSRRGYSSMMRCY, the amyloid nucleation score entry is “inactive”.

In the case of LINMLGWVRFY, the amyloid nucleation score was found to be 0.623 ± 0.44. For NTMMGV the value was -0.724 ± 0.64; for VYFTSVMNSCVYVSAVCEMC, 6.953 ± 0.046.

Take GSRPEWARVLGSLEIGCGAK: the amyloid nucleation score turned out to be 0.535 ± 0.3. For GIIAMHSLPRQIGIVLFIAR the value was 3.3 ± 0.088; for YFNFDL, -0.313 ± 0.76. To SNYGCDQWWNITWFE belongs -0.791 ± 0.61; to QASSGSKDLD, 0.102 ± 0.23; to TRKILEMVFLLTAVNYNGVP, -1.12 ± 0.26.

In turn, EVWYSPDLTLLVYPTPR came in with an amyloid nucleation score of 1.46 ± 0.4. To TCTNLSCTGWKNGVCVCM belongs 8.536 ± 0.057. For YDSDFFFHNLGDEPASVGFR the value was “inactive”; for DLNYFSTMGEVLYMFSVLTY, -0.08 ± 1; for IVWGC, 0.493 ± 0.34. For TTGRTYIRLIYIMCVSMNVS the value was “inactive”; for VDRMVDIMCTTKKMIHAF, 1.45 ± 0.4.

In turn, LTLHICRAAVYSYGTLS returned an amyloid nucleation score of 1.63 ± 0.12. The substance YWLYMVAHAPKSFIE registered an amyloid nucleation score of 0.509 ± 0.8.
